These results are taken from article PMC12709241.

Like-named read-outs stand apart in the source and are kept apart here.

The target in assay [1] is microtubules (assembled from porcine brain tubulin, rhodamine-labeled, paclitaxel-stabilised) (porcine) (UniProt P02550). The assay is described as follows: optical trapping.
Assay [2] shares this target. Put plainly: optical trapping. This is another data set of the same source.

“KinΔC (mouse KIF5B 1-888 heavy chain with bound full-length KLC2) (from UniProt Q61768 1-888; O88448 1-599) (complex)”: the mean detachment force (single molecule) in assay [1] turned out to be 6.4 pN; in assay [2], 6.3 pN.
